This note sets out measurements from patent US20260217797A1 (Takeda / Millennium, published 2026).

Like-named read-outs stand apart in the source and are kept apart here.

In test [1] the target is T1, SARS-CoV-2 wild type spike protein (on reporter virus particles) (SARS-CoV-2, UniProt P0DTC2 14-1273). The test is described as follows: cell-based or functional assay.
Test [2] has as its target T1, SARS-CoV-2 wild type spike protein (on …). The test is described as follows: cell-based or functional assay. This is another data set of the same source.
For the next test, the target named is SARS-CoV-2 S Trimer (SARS-CoV-2, UniProt P0DTC2 16-1213). Put plainly: Octet BLI, IgG, avid.
Test [3] addresses T2, SARS-CoV1 Spike [change] (SARS-CoV-1, UniProt P59594 14-667). Put plainly: Octet BLI, IgG, monovalent.
The target in a further test is T3, MERS-CoV [change] (MERS-CoV, UniProt K9N5Q8 18-725).
T3 sequence: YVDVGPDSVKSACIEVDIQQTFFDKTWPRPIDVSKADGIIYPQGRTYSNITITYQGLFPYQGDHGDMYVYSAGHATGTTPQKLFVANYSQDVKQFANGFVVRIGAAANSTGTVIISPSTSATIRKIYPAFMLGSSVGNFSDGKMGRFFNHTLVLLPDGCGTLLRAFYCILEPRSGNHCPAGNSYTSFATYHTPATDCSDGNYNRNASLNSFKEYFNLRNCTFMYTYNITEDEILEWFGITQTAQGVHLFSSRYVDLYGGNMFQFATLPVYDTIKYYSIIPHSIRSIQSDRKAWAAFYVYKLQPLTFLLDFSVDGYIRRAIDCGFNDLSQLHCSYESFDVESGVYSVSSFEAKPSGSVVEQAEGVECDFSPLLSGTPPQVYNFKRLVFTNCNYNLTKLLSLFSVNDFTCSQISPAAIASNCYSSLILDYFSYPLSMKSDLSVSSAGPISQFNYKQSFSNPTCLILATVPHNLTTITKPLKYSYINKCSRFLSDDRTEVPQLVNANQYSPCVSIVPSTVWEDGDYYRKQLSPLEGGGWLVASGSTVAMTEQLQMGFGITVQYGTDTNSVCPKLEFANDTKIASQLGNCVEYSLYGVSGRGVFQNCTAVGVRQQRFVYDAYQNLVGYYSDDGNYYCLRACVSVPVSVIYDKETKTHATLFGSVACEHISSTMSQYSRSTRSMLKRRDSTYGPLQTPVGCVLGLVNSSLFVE
Put plainly: Octet BLI, IgG, monovalent.

In test [4] the target is T4, SARS-CoV-2 Spike S1-His (SARS-CoV-2, UniProt P0DTC2 16-685). The test is described as follows: Octet BLI, IgG, monovalent. On the technique in general: BLI is a label-free optical method that tracks binding on a fibre tip over time.
In test [5] the target is T1, SARS-CoV-2 wild type spike protein (on …). The test is described as follows: cell-based or functional assay. This is another data set of the same source.
The target of test [6] is T2, SARS-CoV1 Spike [change]. The test is described as follows: Octet BLI, IgG, monovalent. This is another data set of the same source.
Test [7] has as its target T4, SARS-CoV-2 Spike S1-His. Put plainly: Octet BLI, IgG, monovalent. The source holds these as a separate data set.

B1: A-10 (antibody, V domains shown)
VH: QVQLVQSGGGVVQPGRSLRLSCAASGFTFSSYGMHWVRQAPGKGLEWVAVISYDGSNKYYTDSVKGRFTISRDNSKNTLYLQMNSLRAEDTAVYYCAKDLPREVYYDILTGYDNPYYYYGMDVWGQGTTVTVSS
VL: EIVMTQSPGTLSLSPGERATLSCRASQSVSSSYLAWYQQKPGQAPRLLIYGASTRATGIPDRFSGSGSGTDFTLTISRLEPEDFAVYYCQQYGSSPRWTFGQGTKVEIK
The Kd is the equilibrium constant for the complex coming apart. The low end stands for higher affinity, the high end for lower affinity. Turning to B1, in [1], the “PSV IC50” value was 0.194 µg/mL. Also, in [2], the “PsV Neut Assay IC50” value stood at 1.29 nM. The Kd with SARS-CoV-2 S Trimer came to 0.854 nM; with SARS-CoV-2 Spike S1-His [4] it was 9.59 nM. Further, the binding result with SARS-CoV1 Spike [change] [3] and with MERS-CoV [change] was “no binding” throughout.

B2: A-24.1 (antibody, V domains shown)
VH: EVQLVESGGGLVKPGRSLRLSCAASGFTFADYTMSWFRQAPGKGLEWVGFIRSEPYGGTTEYAASVKGRFTISRDDSKSIAYLQMNSLKTEDTAVYYCSRDPWYCSGGDCYAVTGSWFDPWGQGTLVTVSS
VL: DIQMTQSPSSLSASVGDRVTITCQASQDIKKYLNWYQQKPGKAPKLLIYDVSNLETGVPSRFSGSGSGTDFTFTISSLQPEDVAIYYCQQYDNLPQTFGQGTKVEIK
For the molecule B2, the “WT PsV IC50” value in [5] was determined as 0.0657 nM. For the same molecule, the binding result with SARS-CoV1 Spike [change] [6] is recorded as “no binding”. In addition, binding with SARS-CoV-2 Spike S1-His [7] was characterised by a dissociation constant (Kd) of 0.999 nM.

B3: A-24.2 (antibody, V domains shown)
VH: EVQLVESGGGLVKPGRSLRLSCAASGFTFADYTMSWFRQAPGKGLEWVGFIRSEPYGGTTEYAASVKGRFTISRDDSKSIAYLQMNSLKTEDTAVYYCSRDPWYCSGGDCYAVTGSWFDPWGQGTLVTVSS
VL: DIQMTQSPSSLSASVGDRVTITCQASQDIKQYLNWYQQKPGKAPKLLIYDQSNLETGVPSRFSGSGSGTDFTFTISSLQPEDVAIYYCQQYWNLPQTFGQGTKVEIK
As for B3, the “WT PsV IC50” value in test [5] is 0.116 nM. Further, the binding result in the test with SARS-CoV1 Spike [change] [6] is “no binding”. In the test with SARS-CoV-2 Spike S1-His [7], the Kd came out at 0.289 nM.

B4: A-24.3 (antibody, V domains shown)
VH: EVQLVESGGGLVKPGRSLRLSCAASGFTFADYTMSWFRQAPGKGLEWVGFIRSEPYGGTTEYAASVKGRFTISRDDSKSIAYLQMNSLKTEDTAVYYCSRDPWYCSGGDCYAVTGSWFDPWGQGTLVTVSS
VL: DIQMTQSPSSLSASVGDRVTITCQASRDIKKYLNWYQQKPGKAPKLLIYDVSNLETGVPSRFSGSGSGTDFTFTISSLQPEDVAIYYCQQYDQLPQTFGQGTKVEIE
Consider B4, for which, in test [5], the “WT PsV IC50” value was 0.0454 nM. Also, in the test with SARS-CoV1 Spike [change] [6], the binding result is “no binding”. Moreover, binding with SARS-CoV-2 Spike S1-His [7] was put at a Kd of 0.479 nM.

B5: A-24 (antibody, V domains shown)
VH: EVQLVESGGGLVKPGRSLRLSCAASGFTFADYAMSWFRQAPGKGLEWVGFIRSKPYGGTTEYAASVKGRFTISRDDSKSIAYLQMNSLKTEDTAVYYCSRDPWYCSGGDCYAVTGSWFDPWGQGTLVTVSS
VL: DIQMTQSPSSLSASVGDRVTITCQASQDIKKYLNWYQQKPGKAPKLLIYDVSNLETGVPSRFSGSGSGTDFTFTISSLQPEDVAIYYCQQYDNLPQTFGQGTKVEIK
B5: in test [5], the “WT PsV IC50” value is 0.039 nM. The binding result in the test with SARS-CoV1 Spike [change] [6] is “no binding”. Moreover, the Kd with SARS-CoV-2 Spike S1-His [7] came out at 5.36 nM.

B6: A-13 (antibody, V domains shown)
VH: QVQLVQSGAEVKKPGASVKVSCKASGYTFTDYYMHWVRQAPGQGLEWMGWINPNSGGTNSAQKFQGRVTMTRDTSINTAYMELSRLRSDDTAVYFCARDSHLAMVRGDFEYWGQGTLVTVSS
VL: QSVLTQPASVSGSPGQSITISCTGTSSDVESYNVVSWYQQHPGKAPKLMIYEVSKRPSGVSHRFSGSKSGNTASLTISGLQAEDESDYYCCSYAGNSTWVFGGGTKLTVL
Turning to B6, the “PSV IC50” value in [1] came to 0.023 µg/mL. Moreover, in [2], the “PsV Neut Assay IC50” value turned out to be 0.155 nM. Also, the Kd was 0.843 nM with SARS-CoV-2 S Trimer and 4.91 nM in the test with SARS-CoV-2 Spike S1-His [4]. Besides, the binding result with SARS-CoV1 Spike [change] [3] and in the test with MERS-CoV [change] was “no binding” in each case.

B7: A-22.1 (antibody, V domains shown)
VH: not shown
VL: EIVLTQSPGTLSLSPGERATLSCRASQTVRSDLAWYQQKPGQAPRLLIYGASTRATDISDRFSGSGSGTEFTLTISSLQSEDFAVYYCQQYYEWPPHSDSFGGGTKVEIK
As to B7, the “WT PsV IC50” value in [5] stood at 14.3 nM. The dissociation constant (Kd) was found to be 3.68 nM with SARS-CoV1 Spike [change] [6] and 0.278 nM with SARS-CoV-2 Spike S1-His [7].

B8: A-22.3 (antibody, V domains shown)
VH: not shown
VL: EIVLTQSPGTLSLSPGERATLSCRASQTVRSDLAWYQQKPGQAPRLLIYGGSTRATDISDRFSGSGSGTEFTLTISSLQSEDFAVYYCQQYYEWPPHSDSFGGGTKVEIK
With B8, in test [5], the “WT PsV IC50” value came out at 7.1 nM. Besides, the values for the Kd in the test with SARS-CoV1 Spike [change] [6] and in the test with SARS-CoV-2 Spike S1-His [7] were 4.77 nM and 0.245 nM, respectively.

B9: A-22.2 (antibody, V domains shown)
VH: not shown
VL: EIVLTQSPGTLSLSPGERATLSCSASQTVRSDLAWYQQKPGQAPRLLIYGGSTRATDISDRFSGSGSGTEFTLTISSLQSEDFAVYYCQQYYEWPPHSDSFGGGTKVEIK
For B9, the “WT PsV IC50” value in [5] amounted to 3.3 nM. Further, the results for the Kd in the test with SARS-CoV1 Spike [change] [6] and in the test with SARS-CoV-2 Spike S1-His [7] were 10.1 nM and 0.254 nM, respectively.

B10: A-1 (antibody, V domains shown)
VH: EVQLVESGGGVVQPGGSLRLSCAASGFAFSTYWMHWVRQAPGKGLVWVSRINGDGSGTNYADSVKGRFTISRDNAKSTLYLQMNSLRTEDTAVYYCTRTAGRGAYDFGRFDPWGQGTLVTVSS
VL: DIVLTQTPLSLPVTPGEPASISCRSSQSLLHSNGYNYLDWYLQKAGQSPQLLVFLGSNRASGVPDRFSGSASGTDFTLKISRVEAEDVGVYYCMQALQIPITFGQGTRLEIK
Take B10: the “PSV IC50” value in [1] was found to be 0.017 µg/mL. Further, the “PsV Neut Assay IC50” value in test [2] came out at 0.116 nM. For the same molecule, the values for the Kd with SARS-CoV-2 S Trimer and in the test with SARS-CoV-2 Spike S1-His [4] were 0.865 nM and 9.6 nM, respectively. Also, the binding result with SARS-CoV1 Spike [change] [3] and with MERS-CoV [change] was “no binding” throughout.

B11: A-2 (antibody, V domains shown)
VH: EVQLVESGGGLIQPGGSLRLSCAASGFTVSSNYMSWVRQAPGKGLEWVSIIYSGGSTYYADSVKGRFTISRDNSKNTLYLQMNSLRAEDTAVYYCARAPSGEYGDPIYYWGQGTLVTVSS
VL: QSVLTQPPSASASLGASVKLTCTLSSGHSTYTIAWHQQQPEKGPRYLMKLNSDGSHSKGDGIPDRFSGSSSGAERYLTISSLQSEDEADYYCQTWGTGNHWVFGGGTKLTVL
Consider B11, for which the “PSV IC50” value in test [1] is 0.025 µg/mL. Besides, the “PsV Neut Assay IC50” value in test [2] turned out to be 0.169 nM. Also, the Kd was found to be 1.14 nM in the test with SARS-CoV-2 S Trimer and 14.5 nM in the test with SARS-CoV-2 Spike S1-His [4]. For the same molecule, the binding result with SARS-CoV1 Spike [change] [3] and with MERS-CoV [change] was “no binding” throughout.

B12: A-11 (antibody, V domains shown)
VH: EVQLVESGAEVKKPGSSVMVSCKASGGTFSRYAISWVRQAPGQGLEWMGGIIPVFGIVHYAQKFQGRVTITADKSTSTAYMELSSLRSEDTAAYYCARDRQQQPSPYYYHGMDVWGQGTTVTVSS
VL: DIRLTQSPSSLSASVGDRVTITCQASQDISNYLNWYQQKPGKAPKLLIYDASNLETGVPTRFSGSGSGTDFTFTISSLQPEDIATYYCQQYDNLPLFGGGTKVEIK
Take B12: in test [1], the “PSV IC50” value is 0.092 µg/mL. Besides, the “PsV Neut Assay IC50” value in test [2] came to 0.613 nM. Besides, the Kd with SARS-CoV-2 S Trimer came to 1.29 nM; with SARS-CoV-2 Spike S1-His [4], 6.92 nM. In addition, the binding result in the test with SARS-CoV1 Spike [change] [3] and in the test with MERS-CoV [change] was “no binding” each time.

B13: A-23.2 (antibody, V domains shown)
VH: EVQLVESGGGLVQPGRSLRLSCAASGFTFDDYAMHWVRQAPGKGLEWVSGTSWNSGTIGYADSVKGRFIISRDNAKNSLYLQMNSLRGEDMALYYCVKDRKREDPSLGGMDVWGQGTTVTVSS
VL: SYVLTQPPSVSVAPGQTARITCGGNNIGSKSVHWYQQKPGQAPVLVVYDDTDRPSGIPERFSGSNSGNTATLTISRVEAGDEADYYCQVWDVSSDSYVFGTGTKVTVL
B13: the “WT PsV IC50” value in test [5] stood at 0.416 nM. Further, in the test with SARS-CoV1 Spike [change] [6], the binding result is recorded as “no binding”. This molecule displayed a Kd with SARS-CoV-2 Spike S1-His [7] of 0.454 nM.
